From PMC8055535

Target: light-dependent protochlorophyllide oxidoreductase (LPOR), Zea mays (Zea mays (endogenous in maize etioplasts))
Test: cryo-EM structure; electron cryo-tomography and subtomogram averaging of membrane tubes from ruptured maize etioplasts, native membranes; low-salt pH 8.0 buffer with 150 mM trehalose in place of sorbitol; tube averages at 18.2 and 18.1 Å, sub-boxes of dimers at 9 Å

stoichiometry N: 2
Substance: light-dependent protochlorophyllide oxidoreductase (LPOR), Zea mays (enzyme)
